The record followed here is IntAct's records for PubMed 16374512.

First the molecules themselves.
B1: Retinoblastoma-associated protein (Homo sapiens), P06400 (parent)
chain: MPPKTPRKTAATAAAAAAEPPAPPPPPPPEEDPEQDSGPEDLPLVRLEFEETEEPDFTALCQKLKIPDHVRERAWLTWEKVSSVDGVLGGYIQKKKELWGICIFIAAVDLDEMSFTFTELQKNIEISVHKFFNLLKEIDTSTKVDNAMSRLLKKYDVLFALFSKLERTCELIYLTQPSSSISTEINSALVLKVSWITFLLAKGEVLQMEDDLVISFQLMLCVLDYFIKLSPPMLLKEPYKTAVIPINGSPRTPRRGQNRSARIAKQLENDTRIIEVLCKEHECNIDEVKNVYFKNFIPFMNSLGLVTSNGLPEVENLSKRYEEIYLKNKDLDARLFLDHDKTLQTDSIDSFETQRTPRKSNLDEEVNVIPPHTPVRTVMNTIQQLMMILNSASDQPSENLISYFNNCTVNPKESILKRVKDIGYIFKEKFAKAVGQGCVEIGSQRYKLGVRLYYRVMESMLKSEEERLSIQNFSKLLNDNIFHMSLLACALEVVMATYSRSTSQNLDSGTDLSFPWILNVLNLKAFDFYKVIESFIKAEGNLTREMIKHLERCEHRIMESLAWLSDSPLFDLIKQSKDREGPTDHLESACPLNLPLQNNHTAADMYLSPVRSPKKKGSTTRVNSTANAETQATSAFQTQKPLKSTSLSLFYKKVYRLAYLRLNTLCERLLSEHPELEHIIWTLFQHTLQNEYELMRDRHLDQIMMCSMYGICKVKNIDLKFKIIVTAYKDLPHAVQETFKRVLIKEEEYDSIIVFYNSVFMQRLKTNILQYASTRPPTLSPIPHIPRSPYKFPSSPLRIPGGNIYISPLKSPYKISEGLPTPTKMTPRSRILVSIGESFGTSEKFQKINQMVCNSDRVLKRSAEGSNPPKPLKKLRFDIEGSDEADGSKHLPGESKFQQKLAEMTSTRTRMQKQKMNDSMDTSNKEEK

Assay [1] covers variants of B1. The note with it: with e2f1_human E2F1, Q01094.
Sequence of e2f1_human E2F1, Q01094 (Q01094 whole entry): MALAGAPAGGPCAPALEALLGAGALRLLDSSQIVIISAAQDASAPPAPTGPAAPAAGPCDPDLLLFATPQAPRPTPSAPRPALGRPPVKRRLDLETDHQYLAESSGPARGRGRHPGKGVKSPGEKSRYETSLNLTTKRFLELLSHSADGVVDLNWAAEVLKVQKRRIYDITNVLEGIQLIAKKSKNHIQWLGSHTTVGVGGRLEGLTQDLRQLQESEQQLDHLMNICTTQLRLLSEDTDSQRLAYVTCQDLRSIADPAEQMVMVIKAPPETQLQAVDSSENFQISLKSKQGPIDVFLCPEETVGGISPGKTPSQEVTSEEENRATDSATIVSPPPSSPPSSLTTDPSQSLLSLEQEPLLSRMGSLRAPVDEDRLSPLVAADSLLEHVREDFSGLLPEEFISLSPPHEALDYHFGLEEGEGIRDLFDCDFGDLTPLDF
In assay [2] the parent is B1. The note with it: with e2f1_human E2F1, Q01094. This is another data set of the same source.

For K874Q, the “effect of a mutation on the interaction” value with e2f1_human E2F1, Q01094 [1] is “disrupting interaction”; with e2f1_human E2F1, Q01094 [2], “decreasing interaction”.
On the same counts, the results for K873Q are “disrupting interaction” and “decreasing interaction”.
